In article PMC10939407 (Nucleic Acids Research, 2023):

Molecular target: MBP-DHX15-His10 (human, UniProt O43143 1-795)
Test: pull-down

Sequence of MBP-DHX15-His10 (O43143 whole entry): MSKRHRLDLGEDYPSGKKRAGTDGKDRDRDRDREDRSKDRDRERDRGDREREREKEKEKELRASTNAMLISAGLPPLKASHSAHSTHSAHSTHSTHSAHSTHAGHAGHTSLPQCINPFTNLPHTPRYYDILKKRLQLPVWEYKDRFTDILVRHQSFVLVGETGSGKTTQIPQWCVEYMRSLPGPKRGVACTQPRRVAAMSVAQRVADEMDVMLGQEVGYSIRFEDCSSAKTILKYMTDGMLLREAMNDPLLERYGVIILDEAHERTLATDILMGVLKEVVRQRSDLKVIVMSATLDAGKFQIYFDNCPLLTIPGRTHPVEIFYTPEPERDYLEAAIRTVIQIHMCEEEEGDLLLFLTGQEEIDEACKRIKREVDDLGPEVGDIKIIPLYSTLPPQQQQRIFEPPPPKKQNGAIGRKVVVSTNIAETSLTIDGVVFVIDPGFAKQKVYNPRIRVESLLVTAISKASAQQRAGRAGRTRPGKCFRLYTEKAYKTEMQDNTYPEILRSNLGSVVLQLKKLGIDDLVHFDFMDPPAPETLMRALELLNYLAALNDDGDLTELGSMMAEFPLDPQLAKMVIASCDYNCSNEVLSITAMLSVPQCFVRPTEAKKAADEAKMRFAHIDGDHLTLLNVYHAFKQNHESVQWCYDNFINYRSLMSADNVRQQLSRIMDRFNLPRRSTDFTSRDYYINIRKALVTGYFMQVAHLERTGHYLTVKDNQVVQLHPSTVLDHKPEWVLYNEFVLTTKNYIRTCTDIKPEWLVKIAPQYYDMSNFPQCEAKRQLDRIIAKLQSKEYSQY

B1: ZZ-GPATCH4GP-His7 (G-patch domain of GPATCH4, amino acids 11 to 57) (domain or fragment)
chain: GMKFAEEQLLKHGWTQGKGLGRKENGITQALRVTLKQDTHGVGHDPA
binding result: binds
